# From patent US20090149389A1 (PURDUE RESEARCH FOUNDATION, published 2009)
# T1: Aurora-A (h) (human (h), UniProt O14965 1-403)
# T1 sequence (looked up): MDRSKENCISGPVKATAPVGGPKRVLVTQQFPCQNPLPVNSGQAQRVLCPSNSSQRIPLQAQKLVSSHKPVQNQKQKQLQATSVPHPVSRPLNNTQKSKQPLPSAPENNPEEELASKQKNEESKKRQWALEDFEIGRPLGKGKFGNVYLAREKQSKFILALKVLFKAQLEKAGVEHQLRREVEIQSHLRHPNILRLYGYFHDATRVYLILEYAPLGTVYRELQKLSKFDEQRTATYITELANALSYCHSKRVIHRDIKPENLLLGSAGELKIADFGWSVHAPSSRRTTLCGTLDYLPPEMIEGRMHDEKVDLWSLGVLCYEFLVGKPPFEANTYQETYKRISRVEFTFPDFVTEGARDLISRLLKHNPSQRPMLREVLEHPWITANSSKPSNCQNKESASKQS
# T2: MKK6 (h) (human (h), UniProt P52564 1-334, limits assumed)
# T2 sequence (looked up): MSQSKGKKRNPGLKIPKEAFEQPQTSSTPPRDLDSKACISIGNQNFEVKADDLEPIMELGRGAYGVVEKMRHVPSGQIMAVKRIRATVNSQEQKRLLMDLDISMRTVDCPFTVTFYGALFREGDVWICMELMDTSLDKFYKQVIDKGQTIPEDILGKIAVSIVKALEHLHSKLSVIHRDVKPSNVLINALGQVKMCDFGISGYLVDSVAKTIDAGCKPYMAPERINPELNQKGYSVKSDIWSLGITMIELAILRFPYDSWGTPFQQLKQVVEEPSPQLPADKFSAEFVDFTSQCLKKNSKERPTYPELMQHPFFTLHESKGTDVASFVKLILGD
# T3: PhKγ2 (h) (human (h), UniProt P15735 1-406)
# T3 sequence (looked up): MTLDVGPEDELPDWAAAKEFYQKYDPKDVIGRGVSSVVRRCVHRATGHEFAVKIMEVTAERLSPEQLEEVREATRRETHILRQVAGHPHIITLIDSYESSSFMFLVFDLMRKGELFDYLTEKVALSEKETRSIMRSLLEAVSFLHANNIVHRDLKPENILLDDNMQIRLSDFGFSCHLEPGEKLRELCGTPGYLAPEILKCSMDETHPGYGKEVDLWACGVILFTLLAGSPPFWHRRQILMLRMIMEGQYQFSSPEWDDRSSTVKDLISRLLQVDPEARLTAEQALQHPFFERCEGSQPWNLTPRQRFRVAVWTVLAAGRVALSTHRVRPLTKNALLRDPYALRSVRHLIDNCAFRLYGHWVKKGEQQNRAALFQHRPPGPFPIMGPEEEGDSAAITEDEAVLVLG
# T4: PRAK (UniProt Q8IW41 1-473, limits assumed)
# T4 sequence (looked up): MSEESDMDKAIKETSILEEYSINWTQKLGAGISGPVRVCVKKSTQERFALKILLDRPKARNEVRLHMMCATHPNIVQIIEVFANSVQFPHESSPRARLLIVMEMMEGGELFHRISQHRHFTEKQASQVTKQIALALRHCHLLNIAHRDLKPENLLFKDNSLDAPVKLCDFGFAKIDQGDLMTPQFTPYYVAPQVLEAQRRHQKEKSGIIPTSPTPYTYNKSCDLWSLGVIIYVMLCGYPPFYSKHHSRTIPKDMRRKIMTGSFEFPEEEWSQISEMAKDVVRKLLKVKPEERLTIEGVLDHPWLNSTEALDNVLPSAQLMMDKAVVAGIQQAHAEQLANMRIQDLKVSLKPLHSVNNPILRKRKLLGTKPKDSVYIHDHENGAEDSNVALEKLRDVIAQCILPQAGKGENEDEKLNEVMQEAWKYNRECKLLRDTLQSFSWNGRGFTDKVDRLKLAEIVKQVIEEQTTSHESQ
# T5: Ret (h) (human (h), UniProt P07949 658-1114, limits assumed)
# T5 sequence (looked up): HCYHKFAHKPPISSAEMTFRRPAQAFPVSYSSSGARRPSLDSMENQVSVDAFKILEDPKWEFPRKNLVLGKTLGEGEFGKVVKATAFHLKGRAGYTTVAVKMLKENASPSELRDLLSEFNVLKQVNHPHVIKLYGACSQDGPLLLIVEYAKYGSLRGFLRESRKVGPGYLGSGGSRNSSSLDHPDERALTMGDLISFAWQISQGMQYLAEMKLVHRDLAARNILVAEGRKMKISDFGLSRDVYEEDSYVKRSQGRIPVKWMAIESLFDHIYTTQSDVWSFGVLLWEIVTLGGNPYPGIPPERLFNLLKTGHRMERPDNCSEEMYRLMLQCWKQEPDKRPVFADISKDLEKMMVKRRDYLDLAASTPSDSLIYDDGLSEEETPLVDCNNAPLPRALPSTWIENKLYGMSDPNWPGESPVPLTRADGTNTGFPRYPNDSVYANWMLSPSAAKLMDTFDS
# Key:
# Assay in all cases: cell-based or functional assay
# Abl (h) = Abl (h) (human (h), UniProt P00519 27-1130, limits assumed)
# Aurora-A (h) = biological target: T1, Aurora-A (h)
# BTK (h) = BTK (h) (human (h), UniProt Q06187 1-659)
# CDKI/cyclinB (h) = CDKI/cyclinB (h) (human (h), UniProt P06493 1-297)
# JAK3 (h) = JAK3 (h) (human (h), UniProt P52333 781-1124, limits assumed)
# MAPKAP-K2 (h) = MAPKAP-K2 (h) (human (h), UniProt P49137 46-400, limits assumed)
# MKK6 (h) = biological target: T2, MKK6 (h)
# PhKγ2 (h) = biological target: T3, PhKγ2 (h)
# Pim-1 (h) = Pim-1 (h) (human (h), UniProt P11309 1-313)
# PRAK = biological target: T4, PRAK
# Ret (h) = biological target: T5, Ret (h)
# Syk (h) = Syk (h) (human (h), UniProt P43405 1-635)
# Chain of BTK (h) (Q06187 whole entry): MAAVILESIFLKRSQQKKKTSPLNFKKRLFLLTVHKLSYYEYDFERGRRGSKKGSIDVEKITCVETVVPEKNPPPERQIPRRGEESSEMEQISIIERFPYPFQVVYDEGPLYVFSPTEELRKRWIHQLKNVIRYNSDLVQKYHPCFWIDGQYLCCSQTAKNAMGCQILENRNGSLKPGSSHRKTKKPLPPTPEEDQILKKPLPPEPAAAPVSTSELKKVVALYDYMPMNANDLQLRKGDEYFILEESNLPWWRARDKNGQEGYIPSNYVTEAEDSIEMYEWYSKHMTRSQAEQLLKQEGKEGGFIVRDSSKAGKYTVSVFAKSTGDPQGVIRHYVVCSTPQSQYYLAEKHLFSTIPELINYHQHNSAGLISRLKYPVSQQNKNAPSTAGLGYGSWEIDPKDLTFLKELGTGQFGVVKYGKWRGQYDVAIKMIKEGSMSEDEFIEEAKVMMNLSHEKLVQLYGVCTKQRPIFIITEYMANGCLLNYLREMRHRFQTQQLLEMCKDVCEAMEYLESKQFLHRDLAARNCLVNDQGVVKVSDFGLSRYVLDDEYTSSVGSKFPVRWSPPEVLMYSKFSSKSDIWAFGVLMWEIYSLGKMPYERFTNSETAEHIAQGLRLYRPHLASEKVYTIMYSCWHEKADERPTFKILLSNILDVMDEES
# Chain of Abl (h) (P00519 27-1130 limits assumed): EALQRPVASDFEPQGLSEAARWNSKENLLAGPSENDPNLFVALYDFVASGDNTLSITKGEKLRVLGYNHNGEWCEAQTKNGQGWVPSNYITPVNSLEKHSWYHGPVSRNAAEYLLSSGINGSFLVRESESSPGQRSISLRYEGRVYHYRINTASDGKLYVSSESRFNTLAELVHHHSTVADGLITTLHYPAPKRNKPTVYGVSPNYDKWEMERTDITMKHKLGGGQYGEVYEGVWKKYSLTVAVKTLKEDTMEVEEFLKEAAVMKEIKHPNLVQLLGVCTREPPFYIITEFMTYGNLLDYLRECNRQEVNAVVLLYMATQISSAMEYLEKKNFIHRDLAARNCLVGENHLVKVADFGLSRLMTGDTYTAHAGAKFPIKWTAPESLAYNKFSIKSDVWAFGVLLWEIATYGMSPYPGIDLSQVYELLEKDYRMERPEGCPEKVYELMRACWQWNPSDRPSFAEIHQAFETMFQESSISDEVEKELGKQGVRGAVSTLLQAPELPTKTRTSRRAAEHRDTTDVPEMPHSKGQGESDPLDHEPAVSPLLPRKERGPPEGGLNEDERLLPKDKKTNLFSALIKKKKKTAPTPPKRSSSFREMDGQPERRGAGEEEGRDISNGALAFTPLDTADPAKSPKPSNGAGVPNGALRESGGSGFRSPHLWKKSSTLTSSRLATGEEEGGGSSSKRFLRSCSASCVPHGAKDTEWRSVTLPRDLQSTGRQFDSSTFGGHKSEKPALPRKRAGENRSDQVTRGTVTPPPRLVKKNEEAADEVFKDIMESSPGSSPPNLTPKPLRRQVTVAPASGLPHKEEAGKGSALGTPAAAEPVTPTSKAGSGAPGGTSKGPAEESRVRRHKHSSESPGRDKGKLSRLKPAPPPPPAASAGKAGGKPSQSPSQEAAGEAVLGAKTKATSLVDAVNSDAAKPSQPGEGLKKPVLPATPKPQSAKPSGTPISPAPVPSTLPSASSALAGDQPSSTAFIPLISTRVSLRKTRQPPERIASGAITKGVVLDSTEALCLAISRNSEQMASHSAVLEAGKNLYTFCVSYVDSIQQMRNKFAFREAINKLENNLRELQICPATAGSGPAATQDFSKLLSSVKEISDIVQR
# Chain of Pim-1 (h) (P11309 whole entry): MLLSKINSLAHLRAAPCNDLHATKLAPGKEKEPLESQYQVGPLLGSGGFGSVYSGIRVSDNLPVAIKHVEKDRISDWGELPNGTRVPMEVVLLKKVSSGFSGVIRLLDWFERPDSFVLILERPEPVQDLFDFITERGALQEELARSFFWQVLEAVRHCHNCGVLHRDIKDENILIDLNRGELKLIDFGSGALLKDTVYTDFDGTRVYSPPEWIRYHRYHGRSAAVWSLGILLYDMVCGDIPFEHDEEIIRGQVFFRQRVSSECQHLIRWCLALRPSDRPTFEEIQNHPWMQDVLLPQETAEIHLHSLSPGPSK
# Chain of CDKI/cyclinB (h) (P06493 whole entry): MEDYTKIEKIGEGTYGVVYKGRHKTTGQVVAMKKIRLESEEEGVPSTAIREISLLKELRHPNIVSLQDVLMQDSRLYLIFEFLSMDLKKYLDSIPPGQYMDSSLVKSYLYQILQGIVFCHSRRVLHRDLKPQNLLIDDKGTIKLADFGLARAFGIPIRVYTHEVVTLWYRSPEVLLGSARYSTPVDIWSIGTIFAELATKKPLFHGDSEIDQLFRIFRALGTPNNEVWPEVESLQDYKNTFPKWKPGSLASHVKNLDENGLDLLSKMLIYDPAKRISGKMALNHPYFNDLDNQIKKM
# Chain of JAK3 (h) (P52333 781-1124 limits assumed): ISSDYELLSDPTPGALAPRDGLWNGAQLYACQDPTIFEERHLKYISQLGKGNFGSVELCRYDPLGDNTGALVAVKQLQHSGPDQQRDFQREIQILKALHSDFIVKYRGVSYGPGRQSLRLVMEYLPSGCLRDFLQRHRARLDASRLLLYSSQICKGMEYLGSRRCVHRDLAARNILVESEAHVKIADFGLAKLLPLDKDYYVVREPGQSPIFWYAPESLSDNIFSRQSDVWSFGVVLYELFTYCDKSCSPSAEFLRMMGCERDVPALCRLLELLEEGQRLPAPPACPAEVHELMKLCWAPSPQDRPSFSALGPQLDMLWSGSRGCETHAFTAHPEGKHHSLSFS
# Chain of MAPKAP-K2 (h) (P49137 46-400 limits assumed): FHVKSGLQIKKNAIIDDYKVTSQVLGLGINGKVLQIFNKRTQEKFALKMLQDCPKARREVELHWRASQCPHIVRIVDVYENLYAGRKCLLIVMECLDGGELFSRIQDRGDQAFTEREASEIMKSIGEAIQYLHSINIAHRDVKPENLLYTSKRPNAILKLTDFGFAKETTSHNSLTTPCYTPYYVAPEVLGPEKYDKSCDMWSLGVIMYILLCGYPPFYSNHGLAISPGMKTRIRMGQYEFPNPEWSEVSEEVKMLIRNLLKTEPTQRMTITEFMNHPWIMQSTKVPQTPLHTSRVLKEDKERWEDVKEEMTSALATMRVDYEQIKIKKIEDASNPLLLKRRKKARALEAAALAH
binder,measurement,setting,value
KAFAKLAARLYRKALARQLGVAA,Profile-1 @ = 100 µm (kinase profiler assay),Abl (h),55
same,Profile-1 @ = 100 µm (kinase profiler assay),Aurora-A (h),60
same,Profile-1 @ = 100 µm (kinase profiler assay),BTK (h),16
same,Profile-1 @ = 100 µm (kinase profiler assay),CDKI/cyclinB (h),55
same,Profile-1 @ = 100 µm (kinase profiler assay),JAK3 (h),91
same,Profile-1 @ = 100 µm (kinase profiler assay),MAPKAP-K2 (h),8
same,Profile-1 @ = 100 µm (kinase profiler assay),MKK6 (h),48
same,Profile-1 @ = 100 µm (kinase profiler assay),PhKγ2 (h),27
same,Profile-1 @ = 100 µm (kinase profiler assay),Pim-1 (h),1
same,Profile-1 @ = 100 µm (kinase profiler assay),PRAK,148
same,Profile-1 @ = 100 µm (kinase profiler assay),Ret (h),117
same,Profile-1 @ = 100 µm (kinase profiler assay),Syk (h),4
